According to patent US20230070261A1 (UCB, published 2023):
Numbering of substitutions follows the chain as printed. Names and notes keep the numbering of the source. Values joined by “and” are separate entries in the source; they are usually repeats but may differ in a detail not shown here. Equal values may be shown once. Read-outs that look alike come from different tables or passages of the source.

B1: Rabbit antibody 10273 (antibody, V domains shown)
VH: QSVEESGGRLVTPGTPLTLTCTVSGFSLSSYGMSWVRQAPGKGLEWIGIISSSGSTYYASWAKGRFTISKTSTTVDLKIASPTTEDTATYFCARDHIYRYDDYGDYPTYYGMDPWGPGTLVTVSS
VL: AVVLTQTPSPMSAAVGGTVTISCQSSQSVYNNNDLAWYQQKPGQPPKLLIYRASTLASGVPSRFSGSGSGTQFTLTISGVQCDDAATYYCLGGYDDDVDTYTFGGGTEVVVK
B2: LEKTI D5 Fab fusion (other)
heavy: EVQLLESGGGLVQPGGSLRLSCAVSGIDLSNYAINWVRQAPGKGLEWIGIIWASGTTFYATWAKGRFTISRDNSGGGGSGGGGSREIVKLCSQYQNQAKNGILFCTRENDPIRGPDGKMHGNLCSMCQAYFQAENEEKKKAEARARSGGGGGGGGSKNTVYLQMNSLRAEDTAVYYCARTVPGYSTAPYFDLWGQGTLVTVSSASTKGPSVFPLAPSSKSTSGGTAALGCLVKDYFPEPVTVSWNSGALTSGVHTFPAVLQSSGLYSLSSVVTVPSSSLGTQTYICNVNHKPSNTKVDKKVEPKSCHHHHHHHHHH
light: DIQMTQSPSSVSASVGDRVTITCQSSPSVWSNFLSWYQQKPGKAPKLLIYEASKLTSGVPSRFSGSGSGTDFTLTISSLQPEDFATYYCGGGYSSISDTTFGGGTKVEIKRTVAAPSVFIFPPSDEQLKSGTASVVCLLNNFYPREAKVQWKVDNALQSGNSQESVTEQDSKDSTYSLSSTLTLSKADYEKHKVYACEVTHQGLSSPVTKSFNRGEC
notes: also called LEKTI D5 Fab fusion protein; LEKTI D5Fab fusion protein
B3: 10273gL2-Q1RgH1-D19N (antibody, human IgG4 S228P, kappa, V domains shown)
VH: EVQLVESGGGLVQPGGSLRLSCAVSGFSLSSYGMSWVRQAPGKGLEWIGIISSSGSTYYASWAKGRFTISKDSSKNTVYLQMNSLRAEDTAVYYCARDHIYRYDDYGDYPTYYGMNPWGQGTTVTVSS
VL: AIQLTQSPSSLSASVGDRVTITCRSSQSVYNNNDLAWYQQKPGKAPKLLIYRASTLASGVPSRFSGSGSGTDFTLTISSLQPEDFATYYCLGGYDDDVDTYTFGGGTKVEIKR
modifications: sulphation (+80 Da) of Tyr 9 of CDR-H3, 80% of heavy chain (Table 7)
notes: Humanized graft, hIgG4P
B4: 10273 gL2-Q1RgH1-D19N-T14S (antibody, human IgG4 S228P, kappa, V domains shown)
VH: B3 VH with T111S
VL: B3 VL
modifications: sulphation (+80 Da) of Tyr 9 of CDR-H3, 65% of heavy chain (Table 7)
notes: Humanized graft, hIgG4P
B5: 10273 gL2-Q1RgH1-D19N-T14V (antibody, human IgG4 S228P, kappa, V domains shown)
VH: B3 VH with T111V
VL: B3 VL
modifications: sulphation (+80 Da) of Tyr 9 of CDR-H3, 75% of heavy chain (Table 7)
notes: Humanized graft, hIgG4P
B6: 10273 gL2-Q1RgH1-D19N-Y4F (antibody, human IgG4 S228P, kappa, V domains shown)
VH: B3 VH with Y101F
VL: B3 VL
modifications: sulphation (+80 Da) of Tyr 9 of CDR-H3, 85% of heavy chain (Table 7)
notes: Humanized graft, hIgG4P
B7: 10273 gL2-Q1RgH1-D19N-Y6F (antibody, human IgG4 S228P, kappa, V domains shown)
VH: B3 VH with Y103F
VL: B3 VL
modifications: sulphation (+80 Da) of Tyr 9 of CDR-H3, 75% of heavy chain (Table 7)
notes: Humanized graft, hIgG4P
B8: 10273 gL2-Q1RgH1-D19N-Y9F (antibody, human IgG4 S228P, kappa, V domains shown)
VH: B3 VH with Y106F
VL: B3 VL
notes: Humanized graft, hIgG4P
B9: 10273 gL2-Q1RgH1-D19N-Y12F (antibody, human IgG4 S228P, kappa, V domains shown)
VH: B3 VH with Y109F
VL: B3 VL
modifications: sulphation (+80 Da) of Tyr 9 of CDR-H3, 75% of heavy chain (Table 7)
notes: Humanized graft, hIgG4P
B10: 10273 gL2-Q1RgH1-D19N-Y15F (antibody, human IgG4 S228P, kappa, V domains shown)
VH: B3 VH with Y112F
VL: B3 VL
modifications: sulphation (+80 Da) of Tyr 9 of CDR-H3, 85% of heavy chain (Table 7)
notes: Humanized graft, hIgG4P
B11: 10273 gL2-Q1RgH1-D19N-Y16F (antibody, human IgG4 S228P, kappa, V domains shown)
VH: B3 VH with Y113F
VL: B3 VL
modifications: sulphation (+80 Da) of Tyr 9 of CDR-H3, 75% of heavy chain (Table 7)
notes: Humanized graft, hIgG4P
B12: 10273 gL2gH1 (antibody, human IgG4 S228P, kappa, V domains shown)
VH: B3 VH with N116D
VL: B3 VL with R24Q
modifications: sulphation (+80 Da) of Tyr 9 of CDR-H3, 95% of heavy chain (hIgG4P, Table 7)
notes: Humanized graft

How the values were obtained:
[1] = biological target: T1, Active human KLK5 (human, UniProt Q9Y337 67-293); experiment: cell-based or functional assay
[2] = biological target: T1, Active human KLK5
[3] = biological target: T1, Active human KLK5; experiment: SPR; rabbit antibody 10273 captured on anti-rabbit Fc and saturated with 20 nM human KLK5, LEKTI D5 Fab fusion as analyte (KLK5 in complex with 10273); average value n = 2; human KLK5 already in complex with captured rabbit antibody 10273; LEKTI D5 Fab fusion as analyte; average n = 2
Procedure: (§1) 20 nM of human KLK5 was then injected until the surface reached saturation. LEKTI D5 Fab fusion protein (generated as described in example 1) was then injected at concentrations between 30 μM and 100 nM. Values from buffer only injections were first subtracted from those obtained with the analytes before fitting to a 1:1 binding kinetic model in Biacore™ evaluation software (GE Life Sciences™)
(§2) As reference, LEKTI D5 Fab fusion protein was immobilised to the chip surface prior to monitoring the interaction with human KLK5.

[4] = biological target: T1, Active human KLK5; experiment: SPR; rabbit antibody 10273 captured on anti-rabbit Fc and saturated with 20 nM human KLK5, LEKTI D5 Fab fusion as analyte (KLK5 in complex with 10273); 1:1 model
Procedure: as §1, §2

[5] = biological target: T1, Active human KLK5; experiment: SPR (Biacore T200, 25 C); IgG captured on anti-human IgG Fc, human KLK5 as analyte; 1:1 model; duplicate sample
Procedure: (§3) The kinetics of these grafts for binding to human KLK5 were assessed by surface plasmon resonance (Biacore T200) at 25° C.
(§4) A goat anti-human IgG Fc specific antibody (Jackson ImmunoResearch) was immobilised on a CM5 Sensor Chip via amine coupling chemistry to a level of approximately 7000RU. Each analysis cycle consisted of capture of the anti-KLK5 IgG molecules to the anti Fc surface, injection of KLK5 analyte (prepared in house) for 180 s at 30 μl/min followed by 600 s dissociation. At the end of each cycle the surface was regenerated at a flowrate of 10 μL/min using a 60 s injection of 50 mM HCl followed by a 30 s injection of 5 mM NaOH and a final 60 s injection of 50 mM HCl. Human KLK5 was titrated from 20 nM to 0.74 nM (3×3-fold serial dilutions) in HBS-EP+running buffer (GE Healthcare) supplemented with NaCl to a final concentration of 300 mM. Buffer blank injections were included to subtract instrument noise and drift.
(§5) Kinetic parameters were determined using a 1:1 binding model using Biacore T200 Evaluation software.

[6] = biological target: T1, Active human KLK5; experiment: SPR (Biacore T200, 25 C); IgG captured on anti-human IgG Fc, human KLK5 as analyte; 1:1 model
Procedure: as §3, §4, §5

| Molecule | Kd [6] | koff [6] | kon [6] | other results |
| --- | --- | --- | --- | --- |
| Human LEKTI D5 rabbit Fc (Fc fusion) | – | – | – | IC50 (M), inhibition of kallikrein protease activity (fluorogenic peptide substrate) [1]: 1.03e-10 M; IC50 (read off the curve) [2]: 200000 pM |
| B1 | – | – | – | IC50 (read off the curve) [1]: ~50000 pM |
| B2 | – | – | – | Kd [3]: 13400 pM; koff [4]: 0.000565 s⁻¹; kon [4]: 28700 M⁻¹ s⁻¹ |
| B3 | – | – | – | Kd [5]: 410 pM and 309 pM; koff [5]: 0.000175 s⁻¹ and 0.000133 s⁻¹; kon [5]: 427000 M⁻¹ s⁻¹ and 257000 M⁻¹ s⁻¹ |
| B4 | 644 pM | 0.000165 s⁻¹ | 257000 M⁻¹ s⁻¹ | – |
| B5 | 6900 pM | 0.00251 s⁻¹ | 364000 M⁻¹ s⁻¹ | – |
| B6 | 1150 pM | 0.000519 s⁻¹ | 451000 M⁻¹ s⁻¹ | – |
| B7 | 625 pM | 0.000186 s⁻¹ | 298000 M⁻¹ s⁻¹ | – |
| B8 | 554 pM | 0.0002 s⁻¹ | 362000 M⁻¹ s⁻¹ | – |
| B9 | 318 pM | 0.000138 s⁻¹ | 432000 M⁻¹ s⁻¹ | – |
| B10 | 249 pM | 0.000139 s⁻¹ | 558000 M⁻¹ s⁻¹ | – |
| B11 | 5770 pM | 0.0016 s⁻¹ | 277000 M⁻¹ s⁻¹ | – |
| B12 | 164 pM | 8.45e-05 s⁻¹ | 514000 M⁻¹ s⁻¹ | – |
